Results: the DeepSol protein solubility set

assay: soluble on expression in E. coli; label from the status in PepcDB or PDB records

Row | Sequence | soluble on expression in E. coli
1 | MGSDKIHHHHHHMLISVVLPAYNVQDTIGESIDSILSQTFTDFELIIINDGSQDNTEEVIHAYSDKRIRYYRNEKNEGLIYTLNRGLDLAQGKYIARMDADDVSLPTRFEKQVKVMEESPNIVVCGTQIILFGVDTAKRFTLFLPEESEDLKNLLFIQTCFAHPTVMVRRQVLIDNEVRYDADYPHAEDYKMWIDLSLLGEFYNIQEPLLRYRLSDGQVSHKFSDVQKRTASACRRFLISARFKDEKLDRQIENSIDISTICYIKKKEYPRELLEVLYSSLRKYNFKCLCYLFVSGDIFRFEIVVALALLKRFIIKKDRLL | not soluble
2 | MGSDKIHHHHHHMLKLLKPKHRSILGIDISSSAVKILEISGSGEDICVEGYGREEIPASALEGNIIKDVDVVANCIKKLVERLKFTSKNVALAVPDSAVISKVVQINEGLTDLEMEELVVIEADKYIPYPIDEINLDFEVLGHSAKSSSLLDVLIVASRAENVNTRVEAAHRAGLEPKVVDVESYAVERSVQQIAQELPASGQDKIVAIVDIGANYTHLFVLHGMRLIFSREEKFGGMQLVEAIAEHYHMNLEQAIALKNQGKLPEDYESAVLEPFKDMILLQIKRTLQFFYSTSQHGFVDHILLAGGMARQSGLAALIQEQLGVTTTVANPLSHMSFGKKVNLDVINSDAPTLMVACGLALRHVE | not soluble
3 | MGSDKIHHHHHHMLKVRHLEIFRAVVKAGSVSAAARLLYVSQPAVTKTLRMLEEEIGLTLFLRVKGRLVCTPEAESILPEIERLFGSVQSIAETAREIRQGQRGSIRVSTVSMLATTIVARAVGEFRKTHPYVEFDVRALPTRHVVEYVNNNQADFGILDVAAPSGTLEVEEFCSADLRCVMRAAHPLASRKTITPRLLDNEALATFGEDTLTGWRLREAFRAQGRPFTSVFVSNSTPVLCALVREADAVALVDPFALMSRSFPDLVSRRFSPSVPVQPRFLFAPGRPRSVIVDQFVSQLRKTAGEMAMG | not soluble
4 | MGSDKIHHHHHHMLKVSDLRLKYPNGQRKIFDHLNITIQDKEKVLLLGPSGCGKSTLLNVLSGIVPNLIELPMKYDELIVDPLSGVIFQDPDSQFCMPKVYEELAFVLENRQVPREDMDALIINALNMVNLNVTPETYIKDLSGGMKQKLAIVETILQQSKTLFLDEPTAMLDVQATEDLWTKLIELWEDQTVVIVEHKVKHIWNHVDRVILMDYNGNIIADECPEIILQKYVHLLSEYGVWHPRAWEFAPSRVDFPTTNSHLLQFKNGRIIRGKSTLLSFSDLEIGLGEWITITGANGSGKTTLLESIMQLIKYQGDVYFENQRLTKIKHAAKHMYLVYQNPELQFITNSVYDEINIHFNHLSKDQSDDETIQLLKLLDLQNVKDQHPYELSIGQKRRLSVATALSSKADIIFLDEPTFGLDSHNTFQLIKLFQKRINLGQSIVMVTHDDEIIERYPSRRLKISDGALLDCDGDTNV | not soluble
5 | MGSDKIHHHHHHMLLQTKSNEMLLEKVMDEFSAATSLASVVVDIHGTEVSRLCNFTPFCQLIRSNPKYRSLCQKCDMFGGLEASKTGKPLIYRCHAGLTDFSVPIVVENQLSGFLLSGQVICEENSEVGNIQTEETDWKNDKDLISAFRSVPVFSSKKINSSAEMLTIISQYYLKSEMEKSREEQKQKIVFHHNKPTHHEDNKEIRKALKYIEKNLNRPITLDEVASHVYLSSYYFSKLFKKEMNVNFINYVNQKKMSLAKDMLKNPRWSIDNVARNLGFTQTSYFCKVFRKEFDVTPKGYRETLK | not soluble
6 | MGSDKIHHHHHHMLLTRNEPFTAEKIQAKADILELVQFERFCRDNALWDAMETCFTKDSNVKISWFQGTGHGFIEASKKMTNPAPHKIYNTQVWIKNDRAVAIMQATIQTRTIINGVEMELNSDAKLVTRVERIDGKWYINAFEGVYEKDSLMPVVPSKNADVPAELLANFRKSYACLALSLTLNGYEIDNNLPGIDRPEQVTQFFKEADEWLLQ | not soluble
7 | MGSDKIHHHHHHMLPKWDNSYSVHNAKIDEQHKKLFKLAAKVEVVSDRSVSKNEVKELLAEFFNYMKDHFNDEEKYMQLIGYPNLEEHRKIHKEIIQTMINLIKDIKSTNDLKEKLYIVAKKWLLEHILYEDMKVEKWRSSSLSTDDGGDVSFEAAEDEDNEHPQFYLYTCNCPGKIHDVPYSIHQKIELQGRKFTCKTCKQAIKFYKKYS | not soluble
8 | MGSDKIHHHHHHMLPKYEIIKRDIIEKIESGEFSTGEKVYSEGDLKRKYNVSNTTVVKALNDLVNEGYLIRRQGEGTFVRKNLKHRKVFFSEKLSMSNNEKQKSVEETITLVSEEFTDKEIAQILGDKSGSKALLKLTQIALTNDFPWKIQNRYLFADKLRDDSVKRLIEGASLSDELGLQGNMANLPMTMEVSTILLTKDSDELEPLRIIRKSFGEEDSFSLFNIKRLIRGNDGVPIEYSQSFILSDFYQIEIISE | not soluble
